# Reference: the supplement of paper PMC7877785
# ± gives the uncertainty stated by the source.
# Assay: self-splicing fitness, log relative to wild type (ln ratio); higher = more splicing; Tetrahymena group I intron in knt gene, E. coli kanamycin selection, DiMSum; sequences stand for … in CUCUCU…GGAGGGAAAAGUUAUCAGGCAUGCACCUGGUAGCUAGUCUUUAAACCAAUAGAUUGCAUCGGUUUAAAAGGCAAGACCGUCAAAUUGCGGGAAAGGGGUCAACAGCCGUUCAGUACCAAGUCUCAGGGGAAACUUUGAGAUGGCCUUGCAAAGGGUAUGGUAAUAAGCUGACGGACAUGGUCCUAACCACGCAGCCAAGUCCUAAGUCAACAGAUCUUCUGUUGAUAUGGAUGCAGUUCACAGACUAAAUGUCGGUCGGGGAAGAUGUAUUCUUCUCAUAAGAUAUAGUCGGACCUCUCCUUAAUGGGAGCUAGCGGAUGAAGUGAUGCAACACUGGAGCCGCUGGGAACUAAUUUGUAUGCGAAAGUAUAUUGAUUAGUUUUGGAGUACUCGUGGUCG
# In short: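 Library with all eight P1ex-region intron nucleotides randomised, intron inside the knt kanamycin-resistance gene on pET-22b(+), in E. coli BL21(DE3). Cells grew overnight at 37°C or 30°C on LB agar with or without 25 μg/mL kanamycin (plus 100 μg/mL carbenicillin, 50 μM IPTG, 0.2% rhamnose), in six replicate transformations. Pooled colonies were amplicon-sequenced on Illumina HiSeq 2500. DiMSum fitness is the error-weighted combination of wild-type-normalised replicate fold changes, kanamycin versus none.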
Sequence,self-splicing fitness (ln) (30 °C),self-splicing fitness (ln) (37 °C)
UGGCAGCAAUAUUACGUAUA,-1.29 ± 0.097,0.00255 ± 0.11
GACUAGCAAUAUUACGAUUC,-0.598 ± 0.065,-0.35 ± 0.072
AAACAGCAAUAUUACGUGGG,-3.64 ± 0.13,-2.71 ± 0.11
GCUUAGCAAUAUUACGGUGA,-1.46 ± 0.092,-1.75 ± 0.1
GCCGAGCAAUAUUACGGCCA,-1.6 ± 0.11,-1.52 ± 0.12
ACGGAGCAAUAUUACGUCGA,-2.03 ± 0.38,-2.07 ± 0.28
AUCUAGCAAUAUUACGAUAA,-2.1 ± 0.22,-1.1 ± 0.3
CUCUAGCAAUAUUACGCUAU,-3.8 ± 0.39,-2.79 ± 0.3
ACUCAGCAAUAUUACGUGUA,-1.39 ± 0.1,-0.266 ± 0.096
CUUGAGCAAUAUUACGAUCU,,-1.04 ± 0.31
GGGAAGCAAUAUUACGUCAC,-3.08 ± 0.2,-1.77 ± 0.19
CAAUAGCAAUAUUACGGCGU,-2.07 ± 0.11,-0.986 ± 0.12
AUACAGCAAUAUUACGGAUA,-2.52 ± 0.14,-2.38 ± 0.17
GCCAAGCAAUAUUACGAAAA,-2.45 ± 0.27,-1.54 ± 0.2
AGUAAGCAAUAUUACGAGCU,-2.23 ± 0.14,-1.98 ± 0.13
GGCUAGCAAUAUUACGCGCC,-3.69 ± 0.34,-2.17 ± 0.38
AAGAAGCAAUAUUACGCCCC,-0.875 ± 0.12,-0.358 ± 0.17
ACAAAGCAAUAUUACGAGCU,-0.866 ± 0.066,-0.624 ± 0.097
ACAGAGCAAUAUUACGUCUC,-3.77 ± 0.19,-2.4 ± 0.17

Sequence,self-splicing fitness (ln) (30 °C),self-splicing fitness (ln) (37 °C)
AUCAAGCAAUAUUACGCCUA,-0.765 ± 0.11,-0.646 ± 0.095
ACAGAGCAAUAUUACGGGCG,-3.27 ± 0.19,-1.25 ± 0.2
UAACAGCAAUAUUACGGAGG,-3.85 ± 0.16,-1.87 ± 0.091
AAUAAGCAAUAUUACGCAGU,-3.08 ± 0.22,-2.04 ± 0.19
AACGAGCAAUAUUACGAAAC,,-2.37 ± 0.22
GCGCAGCAAUAUUACGAAAU,-0.982 ± 0.075,-0.192 ± 0.095
CUGCAGCAAUAUUACGCUAU,-4.29 ± 0.25,-3.04 ± 0.25
UCCUAGCAAUAUUACGGUAG,-3.32 ± 0.32,-2.28 ± 0.29
CUUAAGCAAUAUUACGGCAA,-2.7 ± 0.42,-2.57 ± 0.38
AUAAAGCAAUAUUACGUCUG,-0.676 ± 0.079,-0.47 ± 0.11
CCUCAGCAAUAUUACGUCGG,-3.36 ± 0.16,-2.59 ± 0.19
CGUCAGCAAUAUUACGUUGC,-3.95 ± 0.26,-2.89 ± 0.18
CAACAGCAAUAUUACGUUCU,-1.32 ± 0.073,-0.92 ± 0.094
AAGAAGCAAUAUUACGUUCU,-2.55 ± 0.11,-1.26 ± 0.1
CAGGAGCAAUAUUACGAGUG,-2.51 ± 0.2,-1.95 ± 0.17
CACGAGCAAUAUUACGAGCU,-4.14 ± 0.35,-3.33 ± 0.39
UCCUAGCAAUAUUACGUCCG,-3.98 ± 0.25,-3.81 ± 0.34
CAGCAGCAAUAUUACGAGUC,-4.41 ± 0.29,-2.24 ± 0.14
CGCCAGCAAUAUUACGAUCA,-1.58 ± 0.32,-0.817 ± 0.34
